Series [1] can be described thus: Precipitation of silica from TEOS by biosurfactants. The note with it: 400 μM peptide, 25 mM HEPES pH 7.5 and 8.0, 80 mM TEOS, room temperature. As to the method: To test whether biosurfactants SEQ ID NO: 153 and SEQ ID NO: 154 were able to precipitate silica, separate aqueous solutions of SEQ ID NO: 153 and SEQ ID NO: 154 (400 μM) in HEPES buffer (25 mM) at pH 7.5 and 8.0 were prepared and TEOS (80 mM) was added. A solution of each biosurfactant was retained without TEOS as a control. The mixtures were gently stirred at room temperature. A transparent gel-like precipitate formed within a few minutes in those compositions which had TEOS added whereas the control remained a solution. The precipitate was isolated and extensively washed with water and vacuum dried. The precipitate was analyzed by elemental analysis using EDS in conjunction with scanning electron microscopy (SEM, JEOL 6610). […] Excess oxygen, carbon and sulfur also found in the analysis were consistent with entrapped peptide.

Series [2] in a line: TEM measurement of nanocapsule silica shell thickness and diameter. The format is physicochemical. As to the method: (§1) The size distribution profile of the nanoemulsions and nanocapsules was determined by dynamic light scattering (DLS, Malvern Zetasizer Nano ZS) and the samples were diluted by a factor of 100 prior to the measurement. The morphology and shell thickness of the nanocapsules were examined by transmission electron microscopy (TEM, JEOL 1010, 100 kV accelerating voltage). Samples (2 μL) were taken directly from the reaction mixtures, deposited onto Formvar-coated copper grids (200 mesh), and left to air-dry prior to examination. Samples were also analyzed for high-resolution (HR) TEM (JEOL 2100, 200 kV accelerating voltage) equipped with an energy dispersive X-ray spectroscopy (EDS) detector. The formation of amorphous silica was verified by selected area electron diffraction (SAED) in HRTEM.
(§2) Each of the dialyzed nanoemulsion compositions from Example 2 at pH 7.5 or 8.0 were divided into a number of separate glass vials. One composition of each peptide nanoemulsion at each pH was retained as a control. To the other compositions, three concentrations of TEOS were added to separate vials, 20 mM, 40 mM and 80 mM, and the compositions were gently stirred for 20 to 50 hours. The compositions were then analyzed by DLS and a size increase consistent with the formation of a thick layer surrounding the oil droplet core in TEOS-containing solutions was observed.
The shell thickness of at least 100 individual nanocapsules were measured by TEM (a dark ring around the perimeter of the bright core). The silica layer formed on SEQ ID NO: 153 and SEQ ID NO: 154 nanoemulsions at pH 7.5 was 22±5 nm and 12±2 nm thick respectively and at pH 8.0, 35±5 nm and 27±6 nm respectively.
SEQ ID NO: 155 was used to facilitate formation and stabilization of nanoemulsions, and subsequently direct nucleation and growth of silica shell encasing the nanoemulsion template. A solution of SEQ ID NO: 155 (115 μM) in HEPES buffer (25 mM, pH 7.5) was mixed with Miglyol® 812 oil (10% v/v) by sonication at 10 W using Branson Sonifier 450 for 4×30 s burst and interspersed with cooling in an ice bath for 60 s. An aliquot of SEQ ID NO: 155 nanoemulsions (400 μL) was transferred to a glass vial and added with TEOS (80 mM). The mixture was then stirred at room temperature for 20 h to form silica shell surrounding the nanoemulsions.

Series [3] in a line: Dynamic light scattering of nanoemulsions and nanocapsules. In kind it is physicochemical. The following applies: for Number-average diameter (dn) of oil droplets in nanoemulsion / Polydispersity index (PDI) of nanoemulsion: 400 μM peptide, 800 μM ZnCl2, 2% v/v Miglyol 812, HEPES pH 7.0, after sonication; for Increase in number-average diameter of nanoemulsion after dialysis: dialysis 20 hours against HEPES 25 mM, pH 7.5 or 8.0, 10 kDa membrane; for PDI of nanocapsules: 80 mM TEOS, 25 mM HEPES. As to the method:
as §1
Separate solutions of SEQ ID NO: 153 (400 μM) and SEQ ID NO: 154 (400 μM) in HEPES buffer (25 mM, pH 7.0) in the presence of ZnCl2 (800 μM) were mixed with Miglyol® 812 (2% v/v) by sonication (Branson Sonifier 450, 10 W, 4×30 s burst and interspersed with cooling in an ice bath for 60 s). After sonication, the compositions were macroscopically identical and homogeneous with cloudy appearance.
The nanoemulsion compositions (1 mL) were dialyzed against HEPES buffer (500 mL, 25 mM, pH 7.5 or 8.0) using a 10 kDa cellulose membrane to adjust pH of each nanoemulsion and to remove residual peptide. After dialysis for 20 hours there was only a slight increase, approximately 5%, in the number-average diameter of nanoemulsions stabilized by either SEQ ID NO: 153 or SEQ ID NO: 154 and the PDIs remained similar. The nanoemulsions were stable to dialysis.
as §2

The mark [4] stands for this setting: pH 7.5, at least 100 nanocapsules by TEM.
Setting [5] is: pH 8.0, at least 100 nanocapsules by TEM.
Where [6] appears, read: pH 7.5, 20 hours silicification.
The mark [7] stands for this setting: pH 8.0, 20 hours silicification.
Where [8] appears, read: 115 μM protein, 10% v/v Miglyol 812, pH 7.5, 80 mM TEOS, 20 h.

With “Ac-MKQLAHSVSRLEHA-RKKRKKRKKRKKGGGY-CONH2 (Ac-MKQLAHSVSRLEHARKKRKKRKKRKKGGGY-NH2) [SEQ ID NO: 154, custom synthesized mineralizing biosurfactant peptide, Mw 3632.4]”, in series [1], the “Ability to precipitate/nucleate silica” value was “can nucleate silica”. The Silica shell thickness in series [2] (30 hours, 20 mM TEOS, 25 mM HEPES pH 7.5) turned out to be 5±1 nm; in series [2] (30 hours, 40 mM TEOS, 25 mM HEPES pH 7.5) it was 10±2 nm; in series [2] (30 hours, 80 mM TEOS, 25 mM HEPES pH 7.5), 16±3 nm; in series [2] (setting [4]), 12±2 nm; in series [2] (setting [5]), 27±6 nm. Besides, in series [3], the “Number-average diameter (dn) of oil droplets in nanoemulsion” value is about 40 nm. In addition, the “Polydispersity index (PDI) of nanoemulsion” value in series [3] was 0.293. Further, in series [3], the “Increase in number-average diameter of nanoemulsion after dialysis” value was “approximately 5%”. The PDI of nanocapsules in series [3] (setting [6]) is 0.146; in series [3] (setting [7]), 0.233.

On to “Ac-MKQLAHSVSRLEHA-SSKKSGSYGGSKGSKRRIL-NH2 (Ac-MKQLAHSVSRLEHASSKKSGSYGGSKGSKRRIL-NH2) [SEQ ID NO: 153, custom synthesized mineralizing biosurfactant peptide, Mw 3643.2]”, for which the “Ability to precipitate/nucleate silica” value in series [1] is listed as “can nucleate silica”. The molecule also gave a Silica shell thickness in series [2] (setting [4]) of 22±5 nm. The molecule also displayed a Silica shell thickness in series [2] (setting [5]) of 35±5 nm. Also, in series [3], the “Number-average diameter (dn) of oil droplets in nanoemulsion” value is given as about 80 nm, the “Polydispersity index (PDI) of nanoemulsion” value is on record as 0.329 and the “Increase in number-average diameter of nanoemulsion after dialysis” value is on record as “approximately 5%”. Further, the PDI of nanocapsules in series [3] (setting [6]) worked out at 0.242. This molecule gave a PDI of nanocapsules in series [3] (setting [7]) of 0.794.

B1: MDPS MKQLADS LHQLARQ VSRLEHA DPS MKQLADS LHQLARQ VSRLEHA DPS MKQLADS LHQLARQ VSRLEHA DPS MKQLADS LHQLARQ VSRLEHA EPS-RKKRKKRKKRKKGGGY (protein)
chain: MDPSMKQLADSLHQLARQVSRLEHADPSMKQLADSLHQLARQVSRLEHADPSMKQLADSLHQLARQVSRLEHADPSMKQLADSLHQLARQVSRLEHAEPSRKKRKKRKKRKKGGGY
notes: recombinant mineralizing biosurfactant protein produced in Escherichia coli
On to B1, for which, in series [2] (setting [8]), the “Outer diameter of nanocapsules” value is 249±29 nm and the Silica shell thickness is 26±2 nm.

(Values after patent publication US11266968B2, “Mineralizing biosurfactant used for nucleating silica” (THE UNIVERSITY OF QUEENSLAND, priority 2013, dated 2022).)
